Data taken from patent publication US20230026259A1, “CA2 COMPOSITIONS AND METHODS FOR TUNABLE REGULATION” (Obsidian Therapeutics, Inc., priority 2019, published 2023).

Test system: T cells
Experiment: CD40L expression of CA2 regulated CD40L constructs in T cells by FACS (dose response, time course)
Assay type: cell-based
Details: for CD40L positive / MFI: Ligand N/A; for CD40L MFI / Percentage CD40L positive cells: constitutive CD40L
Description: CD40L constructs regulated by Carbonic anhydrase DDs were generated and cloned into lentiviral vectors. Purified T cells were thawed and cultured with aCD3 aCD28 Dynabeads (in the ratio of 3 beads to 1 T cell).
The constructs were transduced in T cells the next day. […]

B1: OT-001661: constitutive CD40L control (protein)
chain: MHMIETYNQTSPRSAATGLPISMKIFMYLLTVFLITQMIGSALFAVYLHRRLDKIEDERNLHEDFVFMKTIQRCNTGERSLSLLNCEEIKSQFEGFVKDIMLNKEETKKENSFEMQKGDQNPQIAAHVISEASSKTTSVLQWAEKGYYTMSNNLVTLENGKQLTVKRQGLYYIYAQVTFCSNREASSQAPFIASLCLKSPGRFERILLRAANTHSSAKPCGQQSIHLGGVFELQPGASVFVNVTDPSQVSHGTGFTSFGLLKL
B1 showed a CD40L positive (Example 9, All Cells) of 98%, an MFI (Example 9, All Cells) of 20451 and a CD40L positive (Example 9, CD4+) of 98.7%. For the same molecule, the MFI (Example 9, CD4+) was 24489, the CD40L positive (Example 9, CD8+) was 97.8% and the MFI (Example 9, CD8+) was 14352. For the same molecule, the “CD40L MFI” value (time course 2 hours, CD4+) was 4042, the “Percentage CD40L positive cells” value (time course 2 hours, CD4+) was 72.8% and the “CD40L MFI” value (time course 2 hours, CD8+) was 2212. For the same molecule, the “Percentage CD40L positive cells” value (time course 2 hours, CD8+) was 56.9%, the “CD40L MFI” value (time course 4 hours, CD4+) was 4651 and the “Percentage CD40L positive cells” value (time course 4 hours, CD4+) was 77%. The “CD40L MFI” value (time course 4 hours, CD8+) was 2994, the “Percentage CD40L positive cells” value (time course 4 hours, CD8+) was 63.2% and the “CD40L MFI” value (time course 6 hours, CD4+) was 3156. For the same molecule, the “Percentage CD40L positive cells” value (time course 6 hours, CD4+) was 67.2%, the “CD40L MFI” value (time course 6 hours, CD8+) was 1773 and the “Percentage CD40L positive cells” value (time course 6 hours, CD8+) was 48.5%. The “CD40L MFI” value (time course 24 hours, CD4+) was 9491, the “Percentage CD40L positive cells” value (time course 24 hours, CD4+) was 93.3% and the “CD40L MFI” value (time course 24 hours, CD8+) was 3563. For the same molecule, the “Percentage CD40L positive cells” value (time course 24 hours, CD8+) was 71.2%, the “CD40L MFI” value (time course 48 hours, CD4+) was 5639 and the “Percentage CD40L positive cells” value (time course 48 hours, CD4+) was 88.5%. For the same molecule, the “CD40L MFI” value (time course 48 hours, CD8+) was 2313 and the “Percentage CD40L positive cells” value (time course 48 hours, CD8+) was 71.1%.
